This note sets out measurements from patent publication US20200231671A1 (E R SQUIBB AND SONS L L C, published 2020).

Changes are numbered by the printed parent chain. Where no end group is shown, it is not given here.

Assay [1] concerns the target T1, human LAG-3 full-length extra loop peptide (human, conjugated to biotin).
T1 construct: Exposed extra loop of the immunoglobulin-like first extracellular domain of LAG-3; also called LAG-3 extra loop
T1 peptide: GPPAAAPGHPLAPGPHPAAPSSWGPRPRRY
Kind of assay: ELISA on human full-length extra loop peptide. As for the experimental part: To further examine binding of these antibodies to the extra loop peptide region, additional ELISA assays were performed. In an ELISA assay using the human full-length extra loop peptide (SEQ ID NO: 79), EC₅₀ values for binding were determined for 25E3, 25F7 and 8B7. Additionally, a similar peptide ELISA was conducted using the full length extra loop peptide sequence from rhesus monkey LAG-3, having the sequence […] (SEQ ID NO: 90), and EC₅₀ values for binding were determined for 25F7 and 8B7. […] Moreover, antibodies 25F7 and 8B7 also bind to the rhesus LAG-3 extra loop peptide region, albeit less well compared to the human sequence, which may be due to the species sequence divergence in this polypeptide. The results also confirm that the 26H10 antibody is not capable of recognizing the LAG-3 extra loop peptide.

In assay [2] the target is T2, LAG-3 fusion protein comprising human LAG-3 extracellular domain fused to mouse Fc (human, UniProt P18627 23-450).
T2 construct: extracellular domain; also called hLAG-3-mIg; LAG-3-mIg; not shown: mouse Fc
T2 sequence (looked up): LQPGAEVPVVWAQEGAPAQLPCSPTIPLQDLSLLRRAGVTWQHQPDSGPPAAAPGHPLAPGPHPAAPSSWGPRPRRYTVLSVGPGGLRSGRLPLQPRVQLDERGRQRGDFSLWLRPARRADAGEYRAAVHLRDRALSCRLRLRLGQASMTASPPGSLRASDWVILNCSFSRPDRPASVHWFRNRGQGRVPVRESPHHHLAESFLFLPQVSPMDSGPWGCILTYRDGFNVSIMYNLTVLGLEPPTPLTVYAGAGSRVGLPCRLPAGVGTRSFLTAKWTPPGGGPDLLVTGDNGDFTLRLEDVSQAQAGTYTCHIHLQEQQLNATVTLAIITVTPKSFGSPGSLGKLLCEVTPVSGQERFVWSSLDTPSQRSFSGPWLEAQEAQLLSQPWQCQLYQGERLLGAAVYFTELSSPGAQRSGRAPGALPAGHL
Kind of assay: flow cytometry, inhibition of hLAG-3-mIg binding to MHC Class II on Daudi cells. As for the experimental part:
To test the ability of the anti-LAG-3 antibodies to inhibit binding of LAG-3 to MHC Class II molecules, an in vitro binding assay was performed in which a LAG-3 fusion protein, comprising human LAG-3 extracellar domain fused to mouse Fc (hLAG-3-mIg), was reacted with Daudi cells, which express human MHC Class II molecules.
This mixture was incubated for 20 minutes at room temperature prior to adding to 2×10^{5 1}×PFAE-washed Daudi cells. The mixture was applied to Daudi cells and incubated at 4° C. for 30 minutes. The cells were pelleted (three minutes, 400×g), washed once with 1×PFAE buffer and re-pelleted, and binding of hLAG-3-mIg to the Daudi cells was detected using a recombinant PE-labeled anti-mIgG Fcγ secondary reagent. Analysis of LAG-3-mIg binding was carried out with the FACScalibur flow cytometer (BD Bioscience).

For assay [3], the target named is T3, LAG-3 extra loop scan peptide PGPHPAAPSSWG (human, also: conjugated to biotin).
T3 construct: 12-mer overlapping scan peptide of the extra loop
T3 peptide: PGPHPAAPSSWG
Kind of assay: peptide scan ELISA. As for the experimental part: (§1) In the LAG-3 protein, the immunoglobulin-like first domain of the extracellular region contains an exposed “extra loop” having the amino acid sequence: […] (SEQ ID NO: 79). To examine the binding of 25E3, 25F7, 8B7 and 26H10 to this region of LAG-3, and map the epitope bound by each antibody, a peptide scan experiment was performed across this region. A series of 10 overlapping peptides that scanned across the full length of the extra loop sequence were prepared and conjugated to biotin. For ELISA analysis, microtiter plates pre-coated with streptavidin (Sigma-Aldrich, Cat # M5432) were used to capture the biotinylated loop peptide-conjugates applied in a 100 μl volume at a concentration of 2 μg/mL and incubated 18 hours at 4° C., after which the plates were washed 3 times and blocked at room temperature for 1 hour with blocking buffer (1×PBS+10% FBS). Next, human anti-LAG-3 antibodies serially diluted 3-fold in blocking buffer from 10 μg/mL were applied and the plates were incubated at room temperature for 2 hours and then washed three times. To detect bound human antibody a HRP-conjugated goat anti-human kappa light chain antibody (Bethyl Laboratories, Cat # A80-115P) was diluted to 1 μg/mL in blocking buffer and applied to assay wells for 1 hour followed by three washes and application of TMB substrate (eBioscience, Cat #00-4201-56). Optical density readings at 650 nm wavelength were made on a Spectramax 340PC spectrophotometer ([…].).
Background: In an ELISA, binding on a coated surface is turned into a signal by an enzyme label.

Assay [4] deals with T4, LAG-3 extra loop scan peptide PHPAAPSSWGPR (human, also: conjugated to biotin).
T4 construct: 12-mer overlapping scan peptide of the extra loop
T4 peptide: PHPAAPSSWGPR
Kind of assay: peptide scan ELISA. As for the experimental part: as §1

The target in assay [5] is T5, LAG-3 extra loop scan peptide PAAPSSWGPRPR (human, also: conjugated to biotin).
T5 construct: 12-mer overlapping scan peptide of the extra loop
T5 peptide: PAAPSSWGPRPR
Kind of assay: peptide scan ELISA. How it is done: as §1

B1: 25E3 human monoclonal antibody (antibody, IgG1, V domains shown)
VH: EVQLVESGGGVVRPGGSLRLSCAASGFTFDDYGMSWVRQAPGKGLEWVSGINWNGGSTYYADSVKGRFTISGDNAKNSLYLQMNSLRAEDTALYYCTTGGYWGQGTLVTVSS
VL: AIQLTQSPSSLSASVGDRVTITCRASQGIRSALAWYQQKPGKAPKLLIYDASSLESGVPSRFSGSGSGTDFTLTISSLQPEDFATYYCQQFNSYPYTFGQGTKLEIK
For orientation: EC50 means the concentration giving half of the maximal effect. Lower therefore signals higher potency in that assay. As usually defined, the IC50 is the concentration that inhibits the measured activity by half. A higher IC50 goes with a need for much substance. In turn, B1 displayed an EC50 in assay [1] of 0.55 nM. The IC50 in assay [2] lay within 0.8 to 6.78 nM.

B2: 25F7 human monoclonal antibody (antibody, IgG1, V domains shown)
VH: QVQLQQWGAGLLKPSETLSLTCAVYGGSFSDYYWNWIRQPPGKGLEWIGEINHNGNTNSNPSLKSRVTLSLDTSKNQFSLKLRSVTAADTAVYYCAFGYSDYEYNWFDPWGQGTLVTVSS
VL: EIVLTQSPATLSLSPGERATLSCRASQSISSYLAWYQQKPGQAPRLLIYDASNRATGIPARFSGSGSGTDFTLTISSLEPEDFAVYYCQQRSNWPLTFGQGTNLEIK
notes: also called 25F7-FITC (IgG1 version)
Take B2: the binding result in assay [3], in assay [4] and in assay [5] was “binds” throughout. This molecule came in with an EC50 in assay [1] of 0.29 to 0.95 nM. Moreover, the IC50 in assay [2] lay in the range of 0.12 to 0.92 nM.

B3: 8B7 human monoclonal antibody (antibody, IgG4, V domains shown)
VH: QVQLQQWGAGLLKPSETLSLTCAVYGGSFSGYYWSWIRQPPGKGLEWIGEINHRGNTNCNPSLKSRVTISGDTSKKQFALKLNSVTAADTAVYYCARGYDILTGYYEDSWGPGTLVTVSS
VL: B2 VL with I29V, D50N, Q100G, N103K, L104V
notes: also called 8B7-FITC
Take B3: the binding result in assay [3], in assay [4] and in assay [5] was “binds” in each case. The molecule also gave an EC50 in assay [1] of 0.28 to 1.35 nM. In addition, the IC50 in assay [2] was in the range of 0.19 to 0.95 nM.

B4: 26H10 human monoclonal antibody (antibody, IgG1, V domains shown)
VH: QVQLVESGGGVVQPGRSLRLSCAASGFTFSSYGMHWVRQAPGKGLEWVAVIWYDGSNKYYADSVKGRFTISRDNSKNTLYLQMNSLRAEDTAVYYCAREWAVASWDYGMDVWGQGTTVTVSS
VL: not shown
notes: also called 26H10-FITC
Consider B4, for which the binding result is given as “no binding (tested: 10 µg/mL)” in assay [3], “no binding (tested: 10 µg/mL)” in assay [4], “no binding (tested: 10 µg/mL)” in assay [5] and “no binding” in assay [1]. This molecule registered a concentration for half-maximal inhibition (IC50) in assay [2] of 0.1 nM.
